Experimental data: patent publication US20150196651A1 (published 2015)
Square brackets hold non-standard residues; d marks the D form. Ends that are not written are not given here. * marks the point of attachment. Palmitoyl = CCCCCCCCCCCCCCCC(=O)*; Myristoyl = CCCCCCCCCCCCCC(=O)*; Nle = CCCC[C@H](N)C(=O)O; NOMe = CON*

B1: analog no. 48 (peptide)
peptide: SRTHRHSMEIK(Palmitoyl)TPDINPAWYASRGIRPVGRF-NH2
B2: analog no. 45 (peptide)
peptide: Palmitoyl-SRTHRHSMEIRTPDINPAWYASRGIRPVGRF-NOMe
SMILES: CCCCCCCCCCCCCCCC(=O)N[C@@H](CO)C(=O)N[C@@H](CCCNC(=N)N)C(=O)N[C@H](C(=O)N[C@@H](Cc1c[nH]cn1)C(=O)N[C@@H](CCCNC(=N)N)C(=O)N[C@@H](Cc1c[nH]cn1)C(=O)N[C@@H](CO)C(=O)N[C@@H](CCSC)C(=O)N[C@@H](CCC(=O)O)C(=O)N[C@H](C(=O)N[C@@H](CCCNC(=N)N)C(=O)N[C@H](C(=O)N1CCC[C@H]1C(=O)N[C@@H](CC(=O)O)C(=O)N[C@H](C(=O)N[C@@H](CC(N)=O)C(=O)N1CCC[C@H]1C(=O)N[C@@H](C)C(=O)N[C@@H](Cc1c[nH]c2ccccc12)C(=O)N[C@@H](Cc1ccc(O)cc1)C(=O)N[C@@H](C)C(=O)N[C@@H](CO)C(=O)N[C@@H](CCCNC(=N)N)C(=O)NCC(=O)N[C@H](C(=O)N[C@@H](CCCNC(=N)N)C(=O)N1CCC[C@H]1C(=O)N[C@H](C(=O)NCC(=O)N[C@@H](CCCNC(=N)N)C(=O)N[C@@H](Cc1ccccc1)C(=O)NOC)C(C)C)[C@@H](C)CC)[C@@H](C)CC)[C@@H](C)O)[C@@H](C)CC)[C@@H](C)O
B3: analog no. 44 (peptide)
peptide: Palmitoyl-SRTHRHSMEIRTPDINPAWYASRGIRPVGRF-NHMe
SMILES: CCCCCCCCCCCCCCCC(=O)N[C@@H](CO)C(=O)N[C@@H](CCCNC(=N)N)C(=O)N[C@H](C(=O)N[C@@H](Cc1c[nH]cn1)C(=O)N[C@@H](CCCNC(=N)N)C(=O)N[C@@H](Cc1c[nH]cn1)C(=O)N[C@@H](CO)C(=O)N[C@@H](CCSC)C(=O)N[C@@H](CCC(=O)O)C(=O)N[C@H](C(=O)N[C@@H](CCCNC(=N)N)C(=O)N[C@H](C(=O)N1CCC[C@H]1C(=O)N[C@@H](CC(=O)O)C(=O)N[C@H](C(=O)N[C@@H](CC(N)=O)C(=O)N1CCC[C@H]1C(=O)N[C@@H](C)C(=O)N[C@@H](Cc1c[nH]c2ccccc12)C(=O)N[C@@H](Cc1ccc(O)cc1)C(=O)N[C@@H](C)C(=O)N[C@@H](CO)C(=O)N[C@@H](CCCNC(=N)N)C(=O)NCC(=O)N[C@H](C(=O)N[C@@H](CCCNC(=N)N)C(=O)N1CCC[C@H]1C(=O)N[C@H](C(=O)NCC(=O)N[C@@H](CCCNC(=N)N)C(=O)N[C@@H](Cc1ccccc1)C(=O)NC)C(C)C)[C@@H](C)CC)[C@@H](C)CC)[C@@H](C)O)[C@@H](C)CC)[C@@H](C)O
B4: Human PrRP20 (peptide)
peptide: TPDINPAWYASRGIRPVGRF-NH2
notes: synthetic peptide
B5: analog no. 49 (peptide)
peptide: TPDIK(Palmitoyl)PAWYASRGIRPVGRF-NH2
modifications: N-terminus assumed
SMILES: CCCCCCCCCCCCCCCC(=O)NCCCC[C@H](NC(=O)[C@@H](NC(=O)[C@H](CC(=O)O)NC(=O)[C@@H]1CCCN1C(=O)[C@@H](N)[C@@H](C)O)[C@@H](C)CC)C(=O)N1CCC[C@H]1C(=O)N[C@@H](C)C(=O)N[C@@H](Cc1c[nH]c2ccccc12)C(=O)N[C@@H](Cc1ccc(O)cc1)C(=O)N[C@@H](C)C(=O)N[C@@H](CO)C(=O)N[C@@H](CCCNC(=N)N)C(=O)NCC(=O)N[C@H](C(=O)N[C@@H](CCCNC(=N)N)C(=O)N1CCC[C@H]1C(=O)N[C@H](C(=O)NCC(=O)N[C@@H](CCCNC(=N)N)C(=O)N[C@@H](Cc1ccccc1)C(N)=O)C(C)C)[C@@H](C)CC
B6: analog no. 50 (peptide)
peptide: TPDINPK(Palmitoyl)WYASRGIRPVGRF-NH2
modifications: N-terminus assumed
SMILES: CCCCCCCCCCCCCCCC(=O)NCCCC[C@H](NC(=O)[C@@H]1CCCN1C(=O)[C@H](CC(N)=O)NC(=O)[C@@H](NC(=O)[C@H](CC(=O)O)NC(=O)[C@@H]1CCCN1C(=O)[C@@H](N)[C@@H](C)O)[C@@H](C)CC)C(=O)N[C@@H](Cc1c[nH]c2ccccc12)C(=O)N[C@@H](Cc1ccc(O)cc1)C(=O)N[C@@H](C)C(=O)N[C@@H](CO)C(=O)N[C@@H](CCCNC(=N)N)C(=O)NCC(=O)N[C@H](C(=O)N[C@@H](CCCNC(=N)N)C(=O)N1CCC[C@H]1C(=O)N[C@H](C(=O)NCC(=O)N[C@@H](CCCNC(=N)N)C(=O)N[C@@H](Cc1ccccc1)C(N)=O)C(C)C)[C@@H](C)CC
B7: analog no. 47 (peptide)
peptide: Palmitoyl-SRAHQHSMETRTPDINPAWYTGRGIRPVGRF-NH2
SMILES: CCCCCCCCCCCCCCCC(=O)N[C@@H](CO)C(=O)N[C@@H](CCCNC(=N)N)C(=O)N[C@@H](C)C(=O)N[C@@H](Cc1c[nH]cn1)C(=O)N[C@@H](CCC(N)=O)C(=O)N[C@@H](Cc1c[nH]cn1)C(=O)N[C@@H](CO)C(=O)N[C@@H](CCSC)C(=O)N[C@@H](CCC(=O)O)C(=O)N[C@H](C(=O)N[C@@H](CCCNC(=N)N)C(=O)N[C@H](C(=O)N1CCC[C@H]1C(=O)N[C@@H](CC(=O)O)C(=O)N[C@H](C(=O)N[C@@H](CC(N)=O)C(=O)N1CCC[C@H]1C(=O)N[C@@H](C)C(=O)N[C@@H](Cc1c[nH]c2ccccc12)C(=O)N[C@@H](Cc1ccc(O)cc1)C(=O)N[C@H](C(=O)NCC(=O)N[C@@H](CCCNC(=N)N)C(=O)NCC(=O)N[C@H](C(=O)N[C@@H](CCCNC(=N)N)C(=O)N1CCC[C@H]1C(=O)N[C@H](C(=O)NCC(=O)N[C@@H](CCCNC(=N)N)C(=O)N[C@@H](Cc1ccccc1)C(N)=O)C(C)C)[C@@H](C)CC)[C@@H](C)O)[C@@H](C)CC)[C@@H](C)O)[C@@H](C)O
B8: analog no. 26 (peptide)
peptide: Myristoyl-[dF][dR]GVPRIGRGTYWAPNIDPT-NH2
SMILES: CCCCCCCCCCCCCC(=O)N[C@H](Cc1ccccc1)C(=O)N[C@H](CCCNC(=N)N)C(=O)NCC(=O)N[C@H](C(=O)N1CCC[C@H]1C(=O)N[C@@H](CCCNC(=N)N)C(=O)N[C@H](C(=O)NCC(=O)N[C@@H](CCCNC(=N)N)C(=O)NCC(=O)N[C@H](C(=O)N[C@@H](Cc1ccc(O)cc1)C(=O)N[C@@H](Cc1c[nH]c2ccccc12)C(=O)N[C@@H](C)C(=O)N1CCC[C@H]1C(=O)N[C@@H](CC(N)=O)C(=O)N[C@H](C(=O)N[C@@H](CC(=O)O)C(=O)N1CCC[C@H]1C(=O)N[C@H](C(N)=O)[C@@H](C)O)[C@@H](C)CC)[C@@H](C)O)[C@@H](C)CC)C(C)C
notes: scrambled peptide; also called 26 scram
B9: analog no. 46 (peptide)
peptide: Myristoyl-SRAHQHSMETRTPDINPAWYTGRGIRPVGRF-NH2
SMILES: CCCCCCCCCCCCCC(=O)N[C@@H](CO)C(=O)N[C@@H](CCCNC(=N)N)C(=O)N[C@@H](C)C(=O)N[C@@H](Cc1c[nH]cn1)C(=O)N[C@@H](CCC(N)=O)C(=O)N[C@@H](Cc1c[nH]cn1)C(=O)N[C@@H](CO)C(=O)N[C@@H](CCSC)C(=O)N[C@@H](CCC(=O)O)C(=O)N[C@H](C(=O)N[C@@H](CCCNC(=N)N)C(=O)N[C@H](C(=O)N1CCC[C@H]1C(=O)N[C@@H](CC(=O)O)C(=O)N[C@H](C(=O)N[C@@H](CC(N)=O)C(=O)N1CCC[C@H]1C(=O)N[C@@H](C)C(=O)N[C@@H](Cc1c[nH]c2ccccc12)C(=O)N[C@@H](Cc1ccc(O)cc1)C(=O)N[C@H](C(=O)NCC(=O)N[C@@H](CCCNC(=N)N)C(=O)NCC(=O)N[C@H](C(=O)N[C@@H](CCCNC(=N)N)C(=O)N1CCC[C@H]1C(=O)N[C@H](C(=O)NCC(=O)N[C@@H](CCCNC(=N)N)C(=O)N[C@@H](Cc1ccccc1)C(N)=O)C(C)C)[C@@H](C)CC)[C@@H](C)O)[C@@H](C)CC)[C@@H](C)O)[C@@H](C)O
B10: analog no. 19 (peptide)
peptide: SHQRPADTHWYPRG[Nle]FPTIGRITARNGEVSR
notes: scrambled peptide; also called 19 scram

Key:
[1] = target: T1, human PrRP receptor GPR10 (human, UniProt P49683 1-370); test: competition with 125I-human PrRP31, CHO cells with human GPR10
T1 construct: whole, on cells; also called GPR10 human receptor transfected in CHO cells; human GPR10 receptor
T1 sequence (looked up): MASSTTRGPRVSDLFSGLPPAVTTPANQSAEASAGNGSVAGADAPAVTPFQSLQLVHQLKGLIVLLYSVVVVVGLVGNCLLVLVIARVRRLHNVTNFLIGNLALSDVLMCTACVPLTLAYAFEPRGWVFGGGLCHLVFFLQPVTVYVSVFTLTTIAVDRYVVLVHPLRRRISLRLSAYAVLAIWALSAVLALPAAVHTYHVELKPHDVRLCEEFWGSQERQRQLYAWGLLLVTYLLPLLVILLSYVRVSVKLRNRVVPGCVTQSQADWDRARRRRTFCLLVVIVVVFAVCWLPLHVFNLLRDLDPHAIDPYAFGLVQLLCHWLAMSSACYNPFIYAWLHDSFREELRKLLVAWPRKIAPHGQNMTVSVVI
Protocol: CHO cells transfected with human PrRP receptor GPR10 (Perkin Elmer, USA) were grown on 24-well plates coated with polyethyleneimine. […] The following agents were used for the experiment: binding buffer (25 mmol.1⁻¹ Tris, pH 7.4; 118 mmol.1⁻¹ NaCl, 10 mmol.1⁻¹ MgCl₂, 1 mmol.1⁻¹ CaCl₂, 5.5 mmol.1⁻¹ glucose, 0.5 mg/ml BSA), unlabeled analogs of PrRP (i.e. the analog being tested) at a final concentration between 10⁻¹¹ to 10⁻⁴ mol.1⁻¹, and radiolabeled human ¹²⁵1-PrRP31 at a final concentration of 5×10⁻¹¹ mol.1⁻¹.
(§1) Plates were incubated for 60 minutes at room temperature. After incubation, the cells were solubilized in 0.1 mol/l solution of NaOH, and the radioactivity bound to the cells was counted using a γ-counter. The experiments were performed in duplicate, and repeated at least three times.

[2] = target: T2, rat PrRP receptor in RC-4B/C cells (rat, UniProt Q64121 1-370); test: competition with 125I-rat PrRP31, RC-4B/C cells
T2 construct: whole, on cells; endogenous receptor of RC-4B/C cells (ATCC); also called rat receptor; GPR10 receptor expressed in rat hypophyseal cells
T2 sequence (looked up): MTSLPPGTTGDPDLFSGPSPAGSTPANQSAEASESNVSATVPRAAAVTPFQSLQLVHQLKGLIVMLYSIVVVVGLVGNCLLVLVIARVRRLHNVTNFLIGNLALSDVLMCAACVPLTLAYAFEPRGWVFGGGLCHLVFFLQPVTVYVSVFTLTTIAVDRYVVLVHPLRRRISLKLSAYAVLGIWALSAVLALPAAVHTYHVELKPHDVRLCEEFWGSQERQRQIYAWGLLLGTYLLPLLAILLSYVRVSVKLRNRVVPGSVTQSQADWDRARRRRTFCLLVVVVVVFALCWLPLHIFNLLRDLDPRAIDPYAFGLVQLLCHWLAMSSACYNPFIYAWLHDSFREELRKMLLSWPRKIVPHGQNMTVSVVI
Protocol: The rat pituitary cell line RC-4B/C (ATCC, Manassas, USA) was grown on 24-well plates which had their bottom coated with polyethyleneimine. The cells were grown to the optimal density of 300-450 thousand cells per well.
as §1

Row | Binder | % of PrRP31 [1] | Ki [1] | % of PrRP31 [2] | Ki [2]
1 | B1 | 61% | 0.00637 µM | – | –
2 | B2 | 92% | – | – | –
3 | B3 | 123% | – | – | –
4 | B4 | – | – | 277% | 0.00178 µM
5 | B5 | 90% | 0.00434 µM | – | –
6 | B6 | 69% | 0.00564 µM | – | –
7 | B7 | – | – | 1200% | 0.00041 µM
8 | B8 | – | – | 1.4% | 0.364 µM
9 | B9 | – | – | 657% | 0.00075 µM
10 | B10 | – | – | 4e-05% | 1320 µM
